Test results reported in PMC4452343, “Monitoring β-arrestin recruitment via β-lactamase enzyme fragment complementation: purification of peptide E as a low-affinity ligand for mammalian bombesin receptors” (PLoS ONE, 2015).

How the values were obtained:
[1] = target: human bombesin receptor subtype 3 (human) (UniProt P32247)
[2] = target: neuromedin B receptor (human) (UniProt P28336)
neuromedin B receptor (human), sequence (P28336 whole entry): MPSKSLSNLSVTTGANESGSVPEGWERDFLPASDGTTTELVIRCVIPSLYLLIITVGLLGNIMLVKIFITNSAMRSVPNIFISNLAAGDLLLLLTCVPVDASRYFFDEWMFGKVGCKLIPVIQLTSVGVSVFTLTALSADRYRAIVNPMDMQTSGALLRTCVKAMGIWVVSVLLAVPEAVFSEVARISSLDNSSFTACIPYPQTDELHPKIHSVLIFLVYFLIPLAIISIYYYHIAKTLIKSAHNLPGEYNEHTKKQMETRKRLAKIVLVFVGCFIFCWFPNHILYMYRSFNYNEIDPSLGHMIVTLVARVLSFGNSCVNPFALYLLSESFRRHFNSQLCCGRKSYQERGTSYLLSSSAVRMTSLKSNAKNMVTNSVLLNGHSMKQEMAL

human bombesin receptor subtype 3 (human), sequence (P32247 whole entry): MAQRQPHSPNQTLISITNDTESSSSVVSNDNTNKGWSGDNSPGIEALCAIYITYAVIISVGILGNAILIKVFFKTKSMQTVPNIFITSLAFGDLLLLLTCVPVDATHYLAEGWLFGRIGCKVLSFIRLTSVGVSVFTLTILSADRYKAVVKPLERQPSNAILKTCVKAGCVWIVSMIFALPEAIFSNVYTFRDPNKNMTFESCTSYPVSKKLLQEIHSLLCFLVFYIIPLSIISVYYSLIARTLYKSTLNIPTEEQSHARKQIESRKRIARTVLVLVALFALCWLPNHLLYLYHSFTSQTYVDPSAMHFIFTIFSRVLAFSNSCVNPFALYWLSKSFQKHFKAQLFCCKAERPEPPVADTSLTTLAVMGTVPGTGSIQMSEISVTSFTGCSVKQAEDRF

EC50 of NFAT-luciferase reporter activation in CHO cells expressing hBRS3 [1]	EC50 of NFAT-luciferase reporter activation in CHO cells expressing hNMBR [2]	Substance
8.8 nM	–	[D-Phe^6, ß-Ala^11, Phe^13, Nle^14]-Bombesin (6–14) (peptide)
–	0.16 nM	neuromedin B (peptide)
